US20110059504A1 (GENERAL HOSPITAL, published 2011)
Substitutions are numbered along the chain they refer to. Names may count otherwise.

B1: M1-1, E. coli-produced (designed binder)
chain: MTIPEIIIKVRGTQVVGSDMTVIVEFTNPLKETLRNVWVHLDGPGVTRPMKKMFPAIPMNHKVQWEEVVRPWVSGHRKLIASMPQLFHIHVYGELDVQIQRRHHHHHH
B2: 45927-B3 (designed binder)
chain: MTIPEIIIKVRGTQVVGSDMTVIVEFTNPLKETLRNVWVHLDGPGVTRPMKKMFLKIPGCSTVQWEEVVRPWVSGHRKLIASMSMLGLPFSLRFIPVYGELDVQIQRRDYKDDDDK
notes: group M1-Aext; extended FG loop; also called Mext (clone ID)
B3: 45927-A3 (designed binder)
chain: B2 chain with P58L
notes: group M1-Aext
B4: 61363-C12 (G45E) (designed binder)
chain: MTIPEIIIKVRGTQVVGSDMTVIVEFTNPLEENLYNVWVHLDGPEVTRPMKKMFYQISTNIPVQWEEVVRPWVSGHRKLIASMGAHTKDHVYGELDVQIQRRDYKDDDDK
notes: group N4; G45E
B5: 61362-F2 (designed binder)
chain: MTIPEIIIKVRGTQVVGSDMTVIVEFINTSNETLPSVWVHLDGPGVTRPMKKMFPEIPPNSSVQWEAWVSGHRKLIASMIRDSSRHVYGELDVQIQRRDYKDDDDK
notes: group N2; Δ67-70, P71A
B6: 61363-H1 (V15A) (designed binder)
chain: MTIPEIIIKVRGTQAVGSDMTVIVEFTNPLKETLYNVWVHLDGPGVTRPMKKMFWEIRTNHPVQWEEVVRPWVSGHRKLIASMSSNSRDHVYGELDVQIQRRDYKDDDDK
notes: group N4; V15A
B7: 61362-B8 (I23L) (designed binder)
chain: MTIPEIIIKVRGTQVVGSDMTVLVEFTIPLQDILNVWVHLDGPGVTRPMKKMFFSIRMTPAVQWEEVVRPWVSGHRKLIASMSFHTHRHVYGELDVQIQRRDYKDDDDK
notes: group N4; I23L
B8: FG6+6 phage clone TNPLRGT / PPNVK / GLSTAGRWKRVR (designed binder)
chain: TIPEIIIKVRGTQVVGSDMTVIVEFTNPLRGTLRNVWVHLDGPGVTRPMKKMFREIPPNVKVQWEEVVRPWVSGHRKLIASMSGLSTAGRWKRVRVYGELDVQIQRR
notes: not shown: 6-his, myc tag and C-terminal domain of M13 pIII (phage display fusion)
B9: FG6+6 phage clone TNPRRRV / RPRST / WNSRWPAPTRRR (designed binder)
chain: TIPEIIIKVRGTQVVGSDMTVIVEFTNPRRRVLRNVWVHLDGPGVTRPMKKMFREIRPRSTVQWEEVVRPWVSGHRKLIASMSWNSRWPAPTRRRVYGELDVQIQRR
notes: as for B8
B10: FG6+6 phage clone SNPLSRP / RPHSN / SRSLWLSIGKRH (designed binder)
chain: TIPEIIIKVRGTQVVGSDMTVIVEFSNPLSRPLRNVWVHLDGPGVTRPMKKMFREIRPHSNVQWEEVVRPWVSGHRKLIASMSSRSLWLSIGKRHVYGELDVQIQRR
notes: as for B8
B11: FG6+6 phage clone MNPRMEM / HPDSD / RLWTLWMARWRW (designed binder)
chain: TIPEIIIKVRGTQVVGSDMTVIVEFMNPRMEMLRNVWVHLDGPGVTRPMKKMFREIHPDSDVQWEEVVRPWVSGHRKLIASMSRLWTLWMARWRWVYGELDVQIQRR
notes: as for B8
B12: FG6+6 phage clone GNPTKET / RPRSM / YRPRRGGMRLRH (designed binder)
chain: TIPEIIIKVRGTQVVGSDMTVIVEFGNPTKETLRNVWVHLDGPGVTRPMKKMFREIRPRSMVQWEEVVRPWVSGHRKLIASMSYRPRRGGMRLRHVYGELDVQIQRR
notes: as for B8
B13: FG6 phage clone ANPIKHM / RPTAG / LGVLRR (designed binder)
chain: TIPEIIIKVRGTQVVGSDMTVIVEFANPIKHMLRNVWVHLDGPGVTRPMKKMFREIRPTAGVQWEEVVRPWVSGHRKLIASMSLGVLRRVYGELDVQIQRR
notes: as for B8
B14: FG6 phage clone RRPTKGN / GPGQV / LGMLRR (designed binder)
chain: B13 chain with A26R, N27R, I29T, H31G, M32N, R57G, T59G, A60Q, G61V, V86M
notes: as for B8
B15: FG6 phage clone PSPFIEN / RPECI / RGWLRS (designed binder)
chain: TIPEIIIKVRGTQVVGSDMTVIVEFPSPFIENLRNVWVHLDGPGVTRPMKKMFREIRPECIVQWEEVVRPWVSGHRKLIASMSRGWLRSVYGELDVQIQRR
notes: as for B8
B16: FG6 phage clone INPLQVS / GPSSA / IYRYGL (designed binder)
chain: TIPEIIIKVRGTQVVGSDMTVIVEFINPLQVSLRNVWVHLDGPGVTRPMKKMFREIGPSSAVQWEEVVRPWVSGHRKLIASMSIYRYGLVYGELDVQIQRR
notes: as for B8
B17: FG6 phage clone TIPHRGR / QPNVP / RAFLRH (designed binder)
chain: TIPEIIIKVRGTQVVGSDMTVIVEFTIPHRGRLRNVWVHLDGPGVTRPMKKMFREIQPNVPVQWEEVVRPWVSGHRKLIASMSRAFLRHVYGELDVQIQRR
notes: as for B8

Each binder was assayed against T1, human myostatin (human, UniProt O14793 267-375, biotinylated in selections and radioactive assays (site not stated)) (assay: cell-based or functional assay).
T1 sequence (looked up): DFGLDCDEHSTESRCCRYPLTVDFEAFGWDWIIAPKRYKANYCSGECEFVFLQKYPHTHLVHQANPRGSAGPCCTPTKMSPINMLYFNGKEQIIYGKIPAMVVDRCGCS
B1 was tested, and the “EC50 (read off the curve); blocking of myostatin-induced inhibition of MPC-11 proliferation” value was roughly 20 nM.

What follows are binders tested against T1, human myostatin (assay: radioactive equilibrium binding assay).
B2 was tested, and the Kd was 53 to 86 nM.
With B3 the Kd was 53 to 86 nM.

The binders below were run against T2, streptavidin beads (M-280 beads) (UniProt P22629 37-163, limits assumed) (assay: radioactive equilibrium binding assay).
T2 construct: Capture beads used as negative control
T2 sequence (P22629 37-163 limits assumed): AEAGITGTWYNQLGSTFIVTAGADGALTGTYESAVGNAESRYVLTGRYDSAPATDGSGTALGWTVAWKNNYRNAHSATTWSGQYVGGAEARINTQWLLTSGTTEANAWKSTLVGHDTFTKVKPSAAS
B4: no binding.
B5: no binding.
B6: no binding.
B7: no binding.

The binders below were run against T3, human β-NGF (human, UniProt P01138 122-241, biotinylated (site not stated)) (assay: radioactive equilibrium binding assay).
T3 construct: also called biotinylated human β-NGF; nerve growth factor
T3 sequence (P01138 122-241 limits assumed): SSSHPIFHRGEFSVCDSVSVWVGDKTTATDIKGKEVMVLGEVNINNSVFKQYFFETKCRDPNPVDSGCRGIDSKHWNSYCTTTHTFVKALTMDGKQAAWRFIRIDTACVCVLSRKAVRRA
In the case of B4, the Kd is reported as less than 100 nM.
Work on B5 yielded a Kd of less than 100 nM.
B6 was tested, and the Kd was less than 100 nM.
In the case of B7, the Kd is reported as less than 100 nM.

Target: T1, human myostatin
Experiment: radioactive equilibrium binding assay
Remark: another data set of the same source
Protocol: (§1) Affinities of selected F13β2 binders to biotinylated myostatin were determined in radioactive equilibrium binding assay (FIGS. 11A and 11B; Table 3). ³⁵S-labeled binder proteins from selection pools and single clones were produced in vitro in a rabbit reticulocyte lysate translation kit (Ambion) and purified on M2-agarose (Sigma). Varying concentrations of biotinylated human myostatin (0-100 nM) or other proteins (protein 1: 100 nM; peptide 1: 250 nM; protein 2: 50 nM) were incubated with a constant concentration of the purified binder protein (1 or 2 nM) at 30° C. for 30 min in buffer B (1×PBS, 0.02% Triton X-100 [pH 7.4]). The receptor-binder complexes were captured by using 25 μl of M280 or Protein A (Dynal) (protein 2) magnetic beads for 10 min at room temperature on a Kingfisher instrument (Thermo Fisher Scientific). The beads were washed five times with 100 μl buffer B, and the amount of ³⁵S-methionine remained on the beads was measured by scintillation counting. Data were analyzed by using the GraphPad Prism software (GraphPad Software, Inc., San Diego, Calif.), fitted with a one-site, nonlinear binding equation. For inhibition assay the binding of ³⁵S-labeled proteins to 20 or 25 nM of biotinylated human myostatin was performed in the presence of varying concentrations of inhibitor (human activin receptor IIB/Fc chimera (R&D Systems, Minneapolis, Minn.) (0-250 nM); protein 1 (100 nM), peptide 1 (250 nM), protein 2 (50 nM); proteins, produced in E. coli, M17, M7, M29, M21, M1-1, WT F13β2 (500 nM)).
B2 gave a B max of 50.7% and a Kd of 86.7 nM.
Work on B3 yielded a B max of 36.4% and a Kd of 53.2 nM.

Target: T3, human β-NGF
Experiment: radioactive equilibrium binding assay
Remark: another data set of the same source
Protocol: as §1
Selected F13β2 binders were tested for binding to biotinylated β-NGF in radioactive equilibrium binding assay (FIGS. 21A and 21B; Table 4) according to the procedure described for myostatin binders. NGF at concentrations up to 100 nM was incubated with a constant concentration of the purified binder protein (1 or 2 nM) at 30° C. for 1 hour. Affinities to human β-NGF differed greatly between various binders.
Work on B4 yielded a B max of 33.6% and a Kd of 36 nM.
In the case of B5, the B max is reported as 35.4% and the Kd is reported as 62 nM.
B6 was tested, and the B max was 8.4% and the Kd was 22.9 nM.
B7 gave a B max of 2.1% and a Kd of 3.8 nM.

What follows are binders tested against T4, FcεRI-MBP (UniProt P12319 26-205) (assay: phage ELISA on target-coated Maxisorp wells, anti-M13 pVIII-HRP).
T4 construct: Produced in E. coli; order of the two parts is printed both ways (mbp-FcεRI, FcεRI-MBP); also called mbp-FcεRI; mbpFcεRI
T4 sequence (looked up): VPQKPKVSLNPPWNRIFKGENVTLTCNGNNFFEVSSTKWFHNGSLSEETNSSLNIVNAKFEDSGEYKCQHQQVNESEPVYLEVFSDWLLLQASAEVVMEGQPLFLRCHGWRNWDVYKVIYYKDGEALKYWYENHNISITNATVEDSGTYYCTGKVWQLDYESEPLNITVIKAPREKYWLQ
Protocol: (§2) An Elisa screening was performed after four rounds of selection to identify binding clones. Randomly picked phagemid clones were incubated with target-coated or buffer-coated Maxisorp wells at room temperature for 1 hour. Unbound phage was removed and the wells were washed eight times with PBS pH 7.4, 0.05% Tween-20. Binding was determined with an anti-M13 pVIII antibody-HRP conjugate (GE). […] Varying levels of binding to targets and the Maxisorp surface were also observed in other clones.
B8 was tested, and the “Target Binding” value was 4.
For B9, the “Target Binding” value was 1.73.
B10 was tested, and the “Target Binding” value was 3.31.
With B11 the “Target Binding” value was 2.35.
B12 was tested, and the “Target Binding” value was 4.

What follows are binders tested against chicken lysozyme (chicken, UniProt P00698 19-147) in the same assay as above.
chicken lysozyme, sequence (P00698 19-147 limits assumed): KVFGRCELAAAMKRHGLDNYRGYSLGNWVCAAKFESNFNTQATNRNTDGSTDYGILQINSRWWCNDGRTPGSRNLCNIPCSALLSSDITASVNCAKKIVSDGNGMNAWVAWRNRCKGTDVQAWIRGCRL
Protocol: as §2
For B13, the “Target Binding” value was 2.83.
In the case of B14, the “Target Binding” value is reported as 2.45.
In the case of B15, the “Target Binding” value is reported as 1.19.
In the case of B16, the “Target Binding” value is reported as 4.
With B17 the “Target Binding” value was 0.34.
